B1: FLAG-tagged ADAMTS-4 lacking the C-terminal spacer domain (ADAMTS4-2) (domain or fragment, UniProt O75173 213-685, looked up)
chain: FASLSRFVETLVVADDKMAAFHGAGLKRYLLTVMAAAAKAFKHPSIRNPVSLVVTRLVILGSGEEGPQVGPSAAQTLRSFCAWQRGLNTPEDSDPDHFDTAILFTRQDLCGVSTCDTLGMADVGTVCDPARSCAIVEDDGLQSAFTAAHELGHVFNMLHDNSKPCISLNGPLSTSRHVMAPVMAHVDPEEPWSPCSARFITDFLDNGYGHCLLDKPEAPLHLPVTFPGKDYDADRQCQLTFGPDSRHCPQLPPPCAALWCSGHLNGHAMCQTKHSPWADGTPCGPAQACMGGRCLHMDQLQDFNIPQAGGWGPWGPWGDCSRTCGGGVQFSSRDCTRPVPRNGGKYCEGRRTRFRSCNTEDCPTGSALTFREEQCAAYNHRTDLFKSFPGPMDWVPRYTGVAPQDQCKLTCQAQALGYYYVLEPRVVDGTPCSPDSSSVCVQGRCIHAGCDRIIGSKKKFDKCMVCGGDGSGC
notes: ADAMTS-4 lacking the C-terminal spacer domain
B2: TIMP-1 (natural protein)
chain: not shown
notes: also called T1
B3: MMP-1ΔC/TIMP-3 complex (complex)
chain 1: FVLTEGNPRWEQTHLTYRIENYTPDLPRADVDHAIEKAFQLWSNVTPLTFTKVSEGQADIMISFVRGDHRDNSPFDGPGGNLAHAFQPGPGIGGDAHFDEDERWTNNFREYNLHRVAAHELGHSLGLSHSTDIGALMYPSYTFSGDVQLAQDDIDGIQAIYGRSQNPVQP
chain 2: CTCSPSHPQDAFCNSDIVIRAKVVGKKLVKEGPFGTLVYTIKQMKMYRGFTKMPHVQYIHTEASESLCGLKLEVNKYQYLLTGRVYDGKMYTGLCNFVERWDQLTLSQRKGLNYRYHLGCNCKIKSCYYLPCFVTSKNECLWTDMLSNFGYPGYQSKHYACIRQKGGYCSWYRGWAPPDKSIINATDP
notes: catalytic domain of human MMP-1; pro-domain removed with APMA; as m8; as m3
B4: ADAMTS4-2/TIMP-3 complex (complex)
chain 1: B1 chain
chain 2: B3 chain 2
notes: ADAMTS-4 lacking the C-terminal spacer domain; as m16; as m3; also called [35S]TIMP-3/ADAMTS4-2
B5: ADAM-10/TIMP-3 complex (complex)
chain 1: TTSAEKNTCQLYIQTDHLFFKYYGTREAVIAQISSHVKAIDTIYQTTDFSGIRNISFMVKRIRINTTADEKDPTNPFRFPNIGVEKFLELNSEQNHDDYCLAYVFTDRDFDDGVLGLAWVGAPSGSSGGICEKSKLYSDGKKKSLNTGIITVQNYGSHVPPKVSHITFAHEVGHNFGSPHDSGTECTPGESKNLGQKENGNYIMYARATSGDKLNNNKFSLCSIRNISQVLEKKRNNCFVESGQPICGNGMVEQGEECDCGYSDQCKDECCFDANQPEGRKCKLKPGKQCSPSQGPCCTAQCAFKSKSEKCRDDSDCAREGICNGFTALCPASDPKPNFTDCNRHTQVCINGQCAGSICEKYGLEECTCASSDGKDDKELCHVCCMKKMDPSTCASTGSVQWSRHFSGRTITLQPGSPCNDFRGYCDVFMRCRLVDADGPLARLKKAIFSPELYENIAE
chain 2: B3 chain 2
modifications: 1:1 non-covalent complex; ADAM10 ectodomain (R&D Systems) taken by convention as mature extracellular region without prodomain (catalytic Zn2+), limits not given; TIMP-3 C-terminal/FLAG tag left …
B6: ADAMTS5-2/TIMP-3 complex (complex)
chain 1: SISRARQVELLLVADASMARLYGRGLQHYLLTLASIANRLYSHASIENHIRLAVVKVVVLGDKDKSLEVSKNAATTLKNFCKWQHQHNQLGDDHEEHYDAAILFTREDLCGHHSCDTLGMADVGTICSPERSCAVIEDDGLHAAFTVAHEIGHLLGLSHDDSKFCEETFGSTEDKRLMSSILTSIDASKPWSKCTSATITEFLDDGHGNCLLDLPRKQILGPEELPGQTYDATQQCNLTFGPEYSVCPGMDVCARLWCAVVRQGQMVCLTKKLPAVEGTPCGKGRICLQGKCVDKTKKKYYSTSSHGNWGSWGSWGQCSRSCGGGVQFAYRHCNNPAPRNNGRYCTGKRAIYRSCSLMPCPPNGKSFRHEQCEAKNGYQSDAKGVKTFVEWVPKYAGVLPADVCKLTCRAKGTGYYVVFSPKVTDGTECRLYSNSVCVRGKCVRTGCDGIIGSKLQYDKCGVCGGDNSSCTKIVGTFNKKSKGYTDVVRIPEGATHIKVRQFKAKDQTRFTAYLALKKKNGEYLINGKYMISTSETIIDINGTVMNYSGWSHRDDFLHGMGYSATKEILIVQILATDPTKPLDVRYSFFVPKKSTPKVNSVTSHGSNKVGSHT
chain 2: B3 chain 2
notes: ADAMTS-5 lacking the C-terminal thrombospondin domain; as m17; as m3; also called [35S]TIMP-3/ADAMTS5-2
B7: FLAG-tagged ADAMTS-5 lacking the C-terminal thrombospondin domain (ADAMTS5-2) (domain or fragment, UniProt Q9UNA0 262-874, looked up)
chain: B6 chain 1
notes: ADAMTS-5 lacking the C-terminal thrombospondin domain
B8: Receptor-associated protein (RAP), recombinant His-tagged (natural protein, UniProt P30533 35-357, looked up)
chain: YSREKNQPKPSPKRESGEEFRMEKLNQLWEKAQRLHLPPVRLAELHADLKIQERDELAWKKLKLDGLDEDGEKEARLIRNLNVILAKYGLDGKKDARQVTSNSLSGTQEDGLDDPRLEKLWHKAKTSGKFSGEELDKLWREFLHHKEKVHEYNVLLETLSRTEEIHENVISPSDLSDIKGSVLHSRHTELKEKLRSINQGLDRLRRVSHQGYSTEAEFEEPRVIDLWDLAQSANLTDKELEAFREELKHFEAKIEKHNHYQKQLEIAHEKLRHAESVGDGERVSRSREKHALLEGRTKELGYTVKKHLQDLSGRISRARHNEL
B9: FLAG-tagged N-TIMP-3 (N-terminal domain of TIMP-3) (domain or fragment, UniProt P35625 24-143, looked up)
chain: CTCSPSHPQDAFCNSDIVIRAKVVGKKLVKEGPFGTLVYTIKQMKMYRGFTKMPHVQYIHTEASESLCGLKLEVNKYQYLLTGRVYDGKMYTGLCNFVERWDQLTLSQRKGLNYRYHLGC

molecular target: T1, low-density lipoprotein receptor-related protein 1 (LRP-1) (UniProt Q07954 20-4544); assay: SPR; BIAcore T200; LRP-1 immobilised on a CM5 chip by amine coupling (3000 RU); 25 °C; 150 mM NaCl, 10 mM CaCl2, 50 mM Tris-HCl, 0.01% Tween-20, pH 7.5; 30 μl/min; ligands or pre-formed complexes injected; one-site binding model; triplicate; settings: both partners purified
T1 construct: low-density lipoprotein receptor-related protein 1 (LRP-1), bought from Biomac; source: bought: Biomac (Leipzig, Germany)
T1 sequence (Q07954 20-4544): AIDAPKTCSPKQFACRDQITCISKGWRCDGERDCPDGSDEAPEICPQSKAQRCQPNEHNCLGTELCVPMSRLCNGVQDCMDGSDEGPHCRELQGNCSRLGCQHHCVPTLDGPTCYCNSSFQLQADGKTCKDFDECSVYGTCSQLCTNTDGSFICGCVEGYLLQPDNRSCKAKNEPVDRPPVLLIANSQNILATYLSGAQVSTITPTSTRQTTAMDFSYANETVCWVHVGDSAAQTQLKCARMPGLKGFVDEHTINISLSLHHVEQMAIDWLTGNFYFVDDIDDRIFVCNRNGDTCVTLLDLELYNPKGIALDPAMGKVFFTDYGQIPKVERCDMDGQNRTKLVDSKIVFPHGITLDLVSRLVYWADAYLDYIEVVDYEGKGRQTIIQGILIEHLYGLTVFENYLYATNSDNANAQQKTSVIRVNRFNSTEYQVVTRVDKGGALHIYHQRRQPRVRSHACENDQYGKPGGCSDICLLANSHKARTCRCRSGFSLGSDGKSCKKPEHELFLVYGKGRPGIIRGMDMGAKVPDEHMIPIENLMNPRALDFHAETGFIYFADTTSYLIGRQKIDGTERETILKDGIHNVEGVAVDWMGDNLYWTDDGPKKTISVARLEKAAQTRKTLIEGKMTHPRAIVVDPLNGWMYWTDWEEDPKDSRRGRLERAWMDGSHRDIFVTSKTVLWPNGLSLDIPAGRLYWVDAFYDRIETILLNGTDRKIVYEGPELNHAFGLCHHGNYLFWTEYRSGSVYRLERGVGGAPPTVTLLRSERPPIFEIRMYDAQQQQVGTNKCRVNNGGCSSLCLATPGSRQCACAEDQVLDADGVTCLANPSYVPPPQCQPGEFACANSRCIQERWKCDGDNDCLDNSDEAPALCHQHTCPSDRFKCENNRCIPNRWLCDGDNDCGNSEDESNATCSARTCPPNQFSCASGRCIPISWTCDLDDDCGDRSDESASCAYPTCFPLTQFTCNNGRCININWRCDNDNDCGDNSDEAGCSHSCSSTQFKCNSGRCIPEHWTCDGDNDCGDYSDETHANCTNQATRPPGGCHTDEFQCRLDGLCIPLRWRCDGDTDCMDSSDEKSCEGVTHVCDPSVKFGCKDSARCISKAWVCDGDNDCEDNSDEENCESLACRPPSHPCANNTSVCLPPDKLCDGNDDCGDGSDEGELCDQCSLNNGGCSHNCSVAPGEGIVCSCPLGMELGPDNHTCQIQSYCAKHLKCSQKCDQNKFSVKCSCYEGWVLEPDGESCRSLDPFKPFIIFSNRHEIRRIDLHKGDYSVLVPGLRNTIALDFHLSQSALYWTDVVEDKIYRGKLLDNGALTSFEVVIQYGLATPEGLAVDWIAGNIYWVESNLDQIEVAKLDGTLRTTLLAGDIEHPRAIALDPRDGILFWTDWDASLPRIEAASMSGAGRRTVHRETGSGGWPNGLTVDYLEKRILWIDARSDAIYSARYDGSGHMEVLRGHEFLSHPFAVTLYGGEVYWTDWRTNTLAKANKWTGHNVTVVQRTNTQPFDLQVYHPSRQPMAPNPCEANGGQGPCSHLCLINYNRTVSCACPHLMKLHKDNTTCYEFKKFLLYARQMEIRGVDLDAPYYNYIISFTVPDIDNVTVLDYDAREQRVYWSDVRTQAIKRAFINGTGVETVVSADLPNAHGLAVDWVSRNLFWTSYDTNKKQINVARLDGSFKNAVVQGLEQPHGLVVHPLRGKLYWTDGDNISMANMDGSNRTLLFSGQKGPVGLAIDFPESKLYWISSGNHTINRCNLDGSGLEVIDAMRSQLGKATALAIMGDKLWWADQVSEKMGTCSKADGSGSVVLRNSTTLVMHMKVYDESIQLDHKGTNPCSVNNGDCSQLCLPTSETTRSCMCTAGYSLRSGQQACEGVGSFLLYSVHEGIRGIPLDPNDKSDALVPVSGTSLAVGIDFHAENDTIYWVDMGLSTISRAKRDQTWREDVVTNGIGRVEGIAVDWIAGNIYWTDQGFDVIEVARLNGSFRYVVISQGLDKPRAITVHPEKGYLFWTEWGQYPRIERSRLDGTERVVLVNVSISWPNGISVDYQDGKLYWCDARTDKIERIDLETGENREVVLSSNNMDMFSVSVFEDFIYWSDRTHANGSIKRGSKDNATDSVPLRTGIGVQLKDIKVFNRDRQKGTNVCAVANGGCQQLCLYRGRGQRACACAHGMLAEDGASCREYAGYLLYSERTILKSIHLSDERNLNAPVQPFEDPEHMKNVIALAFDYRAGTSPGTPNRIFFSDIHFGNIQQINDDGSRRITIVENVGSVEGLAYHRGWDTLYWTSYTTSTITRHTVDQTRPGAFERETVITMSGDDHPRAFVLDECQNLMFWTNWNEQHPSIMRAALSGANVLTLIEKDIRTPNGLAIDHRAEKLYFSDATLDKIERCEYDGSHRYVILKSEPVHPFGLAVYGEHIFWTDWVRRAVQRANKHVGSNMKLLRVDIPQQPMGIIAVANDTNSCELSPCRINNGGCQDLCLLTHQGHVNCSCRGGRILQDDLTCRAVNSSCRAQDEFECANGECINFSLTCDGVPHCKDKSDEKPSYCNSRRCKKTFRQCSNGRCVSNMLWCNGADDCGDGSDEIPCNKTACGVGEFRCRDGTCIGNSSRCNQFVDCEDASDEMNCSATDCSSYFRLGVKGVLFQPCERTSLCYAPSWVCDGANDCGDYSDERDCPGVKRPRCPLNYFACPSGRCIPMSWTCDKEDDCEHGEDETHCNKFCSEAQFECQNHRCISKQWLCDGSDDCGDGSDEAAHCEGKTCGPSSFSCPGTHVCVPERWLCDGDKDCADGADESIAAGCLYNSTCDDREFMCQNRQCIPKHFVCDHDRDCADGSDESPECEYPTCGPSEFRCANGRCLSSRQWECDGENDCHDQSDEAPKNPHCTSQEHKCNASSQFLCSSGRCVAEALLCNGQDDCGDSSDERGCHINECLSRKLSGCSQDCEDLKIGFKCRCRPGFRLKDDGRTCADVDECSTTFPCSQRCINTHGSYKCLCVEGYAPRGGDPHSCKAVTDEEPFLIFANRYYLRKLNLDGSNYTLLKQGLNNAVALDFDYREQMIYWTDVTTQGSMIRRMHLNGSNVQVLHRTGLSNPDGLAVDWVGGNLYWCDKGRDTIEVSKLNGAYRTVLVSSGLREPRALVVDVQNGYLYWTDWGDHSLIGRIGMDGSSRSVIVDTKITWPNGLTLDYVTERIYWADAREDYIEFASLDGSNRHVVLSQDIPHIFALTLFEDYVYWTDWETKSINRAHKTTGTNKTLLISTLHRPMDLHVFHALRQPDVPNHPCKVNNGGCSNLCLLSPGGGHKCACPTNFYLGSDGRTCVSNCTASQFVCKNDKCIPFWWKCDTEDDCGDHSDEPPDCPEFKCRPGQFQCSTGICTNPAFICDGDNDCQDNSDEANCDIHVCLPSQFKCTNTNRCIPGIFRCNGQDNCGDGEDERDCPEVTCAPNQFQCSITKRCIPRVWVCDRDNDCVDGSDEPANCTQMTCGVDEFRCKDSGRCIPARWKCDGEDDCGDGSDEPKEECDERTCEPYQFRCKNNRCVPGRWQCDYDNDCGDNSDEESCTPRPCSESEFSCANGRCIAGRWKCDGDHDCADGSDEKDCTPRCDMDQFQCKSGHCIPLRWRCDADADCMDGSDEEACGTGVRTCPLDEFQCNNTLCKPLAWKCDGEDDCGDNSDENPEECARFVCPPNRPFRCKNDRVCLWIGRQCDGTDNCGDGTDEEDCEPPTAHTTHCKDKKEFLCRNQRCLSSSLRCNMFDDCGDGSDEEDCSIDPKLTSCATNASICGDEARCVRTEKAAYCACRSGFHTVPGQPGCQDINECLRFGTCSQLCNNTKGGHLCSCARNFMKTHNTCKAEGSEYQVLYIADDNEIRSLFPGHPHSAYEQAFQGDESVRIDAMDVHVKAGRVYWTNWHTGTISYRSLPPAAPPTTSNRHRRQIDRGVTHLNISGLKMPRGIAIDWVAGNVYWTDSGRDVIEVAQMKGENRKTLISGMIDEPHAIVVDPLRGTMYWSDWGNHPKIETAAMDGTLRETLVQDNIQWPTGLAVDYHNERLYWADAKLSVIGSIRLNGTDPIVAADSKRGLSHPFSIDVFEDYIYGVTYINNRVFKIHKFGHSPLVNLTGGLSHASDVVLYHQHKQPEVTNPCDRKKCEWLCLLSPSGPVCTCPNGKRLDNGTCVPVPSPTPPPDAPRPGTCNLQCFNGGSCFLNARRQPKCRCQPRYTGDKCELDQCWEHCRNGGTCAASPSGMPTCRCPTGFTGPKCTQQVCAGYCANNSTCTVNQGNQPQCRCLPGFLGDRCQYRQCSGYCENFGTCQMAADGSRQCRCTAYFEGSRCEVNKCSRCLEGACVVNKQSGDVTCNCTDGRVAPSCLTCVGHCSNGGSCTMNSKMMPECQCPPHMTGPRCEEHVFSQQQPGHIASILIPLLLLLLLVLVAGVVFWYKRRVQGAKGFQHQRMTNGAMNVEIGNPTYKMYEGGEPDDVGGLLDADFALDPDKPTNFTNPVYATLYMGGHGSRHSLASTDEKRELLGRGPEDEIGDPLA

Binder	Kd [nM]	koff [s⁻¹]	kon [M⁻¹ s⁻¹]
B1	77.6	0.00381	49000
B2	30.9	0.0109	353000
B3	6.42	0.00254	396000
B4	3.3	0.00217	659000
B5	8.67	0.00386	446000
B6	4.5	0.00206	457000
B7	2.27	0.00678	2.99e+06
B8	0.6	0.00419	6.88e+06
B9	5.65	0.00321	567000

— publication PMC7374751, “TIMP-3 facilitates binding of target metalloproteinases to the endocytic receptor LRP-1 and promotes scavenging of MMP-1” (Scientific Reports, 2020)
